The values that follow come from the nanobody polyreactivity screen of Harvey et al. (2022).

The data set is described as follows: yeast display, Sf9 membrane polyspecificity reagent, FACS + sequencing; frameworks hold sequencing errors. A digest of the protocol:
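Synthetic nanobody libraries on Saccharomyces cerevisiae BJ5465 were galactose-induced for 36–48 hours, stained 1 hour at 4 °C with 10% biotinylated, detergent-solubilized Sf9 membrane reagent and enriched on streptavidin microbeads. FACS then separated cells into low and high (top ~1%) gates by anti-HA (expression) and streptavidin (reagent binding) fluorescence. Genes were colony-PCR amplified, MiSeq 2 × 250 sequenced and CDR-length filtered. A clone's polyreactivity label is that of its gate of origin.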
In the case of “QVQLVESGGGLGQAGGSLRSSCAASGSIICYYAMGWYRQAPGKEWELVATITSGGSTSYADSVKGRFTISRDNAKNTVHLQMNSLKPEDTAVYYCAARNVTKSTYNYWGQGTQVTVSS”, the “polyreactivity (PSR sort gate)” value is listed as “low polyreactivity”.
With “QVQLVESGGGLGQARGSLRLSRAASGSPFEYNAMGWYRPAPGKERELVASSTNYADSVKGRFTISRDNAKNTVYLQMNSLKPEVTAVNSCAREPGVNRNHDYWGQGSQVTVSS” the entry was “low polyreactivity”.
With “QVQLVESGGGLGQSGGSLRLSCAATGSTYKYNAMGWNRTAPGKERELVPAISRGGRTNYADSVKGRFTISRDNAKNTVYFQMNILKPEDTAVYYCAKDVAGLFHVGSLYYYWGQGTQVNVSS” the entry was “low polyreactivity”.
For the sequence “QVQLVESGGGLIQAGGSLRLSCAASGSTFANNAMGWYRQAPGKERELVASITRSGSTYYADSVKGRFTISRDNAKNTVYLQMNSLKPEDTAVYYCAADSRRYGVRFDYWGQGTQVTVSS”, the “polyreactivity (PSR sort gate)” value is listed as “low polyreactivity”.
For “QVQLVESGGGLLLAGGSLRLSCAASGYTFVYNAMGWYRHAPGKEREFVAAITWSGTSTRYADSVKGRFTISRDNAKNNVYLQMKSLKPEDTAVYYCAARRRSAQSGSYNHWGQGTQVTVSS” the value was “high polyreactivity”.
With “QVQLVESGGGLLQAGGSHRLSCAASGRIFPAYAMGWYRQAPGKERELVASNRRGGITYADSVKGRFTISRDNAKNTVYLQMNSLKPEDTAVYYCNADYRGWGYHMDYWGQGTQVTVSS” the entry was “low polyreactivity”; with “QVQLVESGGGLLQAGGSLLLSCAASGSNFAYYAMGWYRQAPGKERELVAAITRGAGRTFYADSVKGRFTISRDNAKNTVYLQMNSLKQEDTAVYYCAADVSGSKYDYWGQGTQVTVSS”, “high polyreactivity”; with “QVQLVESGGGLLQAGGSLRISCAASGFPYVMGWYRQAPGKARELVATITSGDSTNYADSVKGRFTISRDNAKNTVYLQMNSLKPEDTAVYYCNARYWGRYYKRVRYDYWGQGTKVTVSS”, “high polyreactivity”.
For “QVQLVESGGGLLQAGGSLRLISAASGGIFIRYAMGWYRQAPGKERALVAAITQSGAGTNYADSVKGRFTISRDNAKNTVYLQKYSLKPEDTAVYYCAKEALLPIRRLTHARTRYNFWGQGTQVTVSS” the value was “low polyreactivity”; for “QVQLVESGGGLLQAGGSLRLSCAASGFIFADYMGWNRQAPGKERELVASISSTGSSTYADSVKGRFTISRDNPKNTVYLQMNSLKPEDTAVSYCAATGVWYSWYEYASEYDYWGLGTQVTVSS”, “high polyreactivity”.
For the sequence “QVQLVESGGGLLQAGGSLRLSCAASGFIFIQYAMGWYRQAPGKEREFVAAITGRGSSTYYADSVKGRFTISRDNAKNTVYLQMNSLKPEDTAVFYCAADRDSYIFYYYWSYDYWGQGTQVTVSA”, the “polyreactivity (PSR sort gate)” value is “high polyreactivity”.
With “QVQLVESGGGLLQAGGSLRLSCAASGFTFGGNAMGWYRQAPGKERELVAAITSRGGSTYYADSVKGRFTISRDNAKNTFYLQMYSLKPEDTAVYYCAAQFTTRYDWGQGTQVTVSS” the entry was “high polyreactivity”; with “QVQLVESGGGLLQAGGSLRLSCAASGFTFRVNAMGWYRQAPGKERELVASITVSDARTYYADSVKGRFTISRDNAKNTVYLQMNSLKPEDTAVYYCAADYKGAFTTDWSSEYEYWGQGTQVTVSS”, “low polyreactivity”; with “QVQLVESGGGLLQAGGSLRLSCAASGFTFSTNAMGWYRQAPGKERDLVAAITWRGGSTYYADSVKGRFTISRDIAKKTVYVQLNSLKPEDTAVYYCAGRSRGSHVSYYKKFDYWGQGTHVTVSS”, “low polyreactivity”.
With “QVQLVESGGGLLQAGGSLRLSCAASGFTVYRYAMGWYRPEPGKERELGAAITWSGGSTYYADSVKGRFTISRDNAKKSVYFQMNSLKPEDTAVYYCAKETAPSRLPYGYWGQGTQVNVSS” the entry was “low polyreactivity”; with “QVQLVESGGGLLQAGGSLRLSCAASGHTLYRYARGWYRQAPGKERELVAAITSRGGSTFYADSVKGRFTISRDTAKNSVYLQMNRLQPEDTAVYYCNTARGTAPAHDYWGQGTQVTVSS”, “low polyreactivity”.
For “QVQLVESGGGLLQAGGSLRLSCAASGITFERNGMGWYRQAPGKERELVAAIRSGGSTYYADSVKGRFTISRDNAKNTVYLQMNTLKPEDTGVYYCAAVTQGGYTYLGDYWGQGTQVTVSS” the value was “low polyreactivity”.
For the sequence “QVQLVESGGGLLQAGGSLRLSCAASGITFVKYTMGWYRQAPGKERELVAAISRSDGRTYYADSVKGRFTISRDNAKNTVYLQMNSLQPEDTEVYYCNAVYGVIGKGYNYWGQGTQVTVSS”, the “polyreactivity (PSR sort gate)” value is “high polyreactivity”.
For “QVQLVESGGGLLQAGGSLRLSCAASGITFYYNTMGWYRQAPGKERELVASISGGCSTYYADSVKGRFTISRDNAKNTVFLQMKSLIPEDTAVYYCNAQGSLFRGWFDYDYWGQGTQVTVSS” the value was “low polyreactivity”; for “QVQLVESGGGLLQAGGSLRLSCAASGRICRYYAMGGYRQAPGKERELVAGIRTSGGRTYADSVKGRFTISRDYAKNTVYLQMNSLKPEDTAVYYCAAGRRTLSMYYWGQGTQVTVSS”, “high polyreactivity”; for “QVQLVESGGGLLQAGGSLRLSCAASGRIFNINAMGWYRQAPGKERELVAAISSGDSTYYADSVKGRFTISRDNAKNTVYLQMNSLKPEDSAVDYCNKDLYIWGHGTQVTVSS”, “low polyreactivity”.
For “QVQLVESGGGLLQAGGSLRLSCAASGRIFYGYTMVRYRQAPGKERELVASITIRGSRTYYADSVKGRFTISRDNAKNTVYLQMISQKPEDTAVSYCAADFVPARTVHRYDYWGQGTQVTVSS” the value was “low polyreactivity”; for “QVQLVESGGGLLQAGGSLRLSCAASGRIKDNGMGWYIKAPGKERELVAAITLSAGRTYYADSVKGRFTISRDNAKNTVYLQMNSLKPEDTAVYYCAAQAERYGYEYWGQGTQVTVSS”, “low polyreactivity”; for “QVQLVESGGGLLQAGGSLRLSCAASGRILFSYAMGWYRQAPGKERELVATISSGGRTNYADSVKGRFTISRDNAKNTVYLQMNSLKPEDTAVYYCNTEYLVWYAYDYGGQGTQVTVSS”, “low polyreactivity”.
Regarding “QVQLVESGGGLLQAGGSLRLSCAASGRIYWNDMAWYRQAPGKERELVAAISWGGDRTYYADSVKGRFTISRDNAKNTVYLQMNSLKPEDTAVYYCNAPGYLTYDHSYDYWGQGTQVTVSS”, the “polyreactivity (PSR sort gate)” value was “low polyreactivity”.
For the sequence “QVQLVESGGGLLQAGGSLRLSCAASGRTFSYYAMGWYRQAPGKERELVAAISWRGGSTYYADSVKGRFTISRDNAKNTVYLQMNSLKPEDTAVYYCAALPRYALGEDYWGQGSQVTVSS”, the “polyreactivity (PSR sort gate)” value is “high polyreactivity”.
“QVQLVESGGGLLQAGGSLRLSCAASGRTFWWNAMGWYRQAPGKERELVAVISYSGGSTYYADSVKGRFTISRDNAKNTVYLQMNSLKPEDTAVYYCAADLYSHTGYYWGQGTQVTVSS”: the “polyreactivity (PSR sort gate)” value is on record as “high polyreactivity”.
With “QVQLVESGGGLLQAGGSLRLSCAASGSIFPQYAMGWYRPAPGKERELVAAITWSGSRTRYADSVKGRFTISRDNAKNTVYLQMNSLKPEDTAVYYCNAYWGRSGYAGGYWGQGTQVTVSS” the entry was “high polyreactivity”; with “QVQLVESGGGLLQAGGSLRLSCAASGSIFQYKAMGWYRQAPGKERELVAAINGGGSTYYADSVKGRFTISRDNEKNTVYLQMNSLKPEYTAVYYCAADGGAYYYRGPGKFGIEDSWGQGTQVTVSS”, “low polyreactivity”; with “QVQLVESGGGLLQAGGSLRLSCAASGSIFYINAKGWYRQAPGKERELVAAITSDGSTYYADSVKGRFTISRDYANYTVYLQLNSLKPEYSAVYYCAADLTSDQYLYYWYWFSSWGQGTQGTVSS”, “low polyreactivity”.
For “QVQLVESGGGLLQAGGSLRLSCAASGSTFDSYAMGWYRQAPGKERELVAAITNGGSTYYADSVKGRFTISRDNAKNTVYLQMNSLKPEDTAVYYCATDDYLLDYLYDYWGQGTQVTVSS” the value was “low polyreactivity”; for “QVQLVESGGGLLQAGGSLRLSCAASGSTFGHYAMGWYRQAPGKERELVAAITWSGGSTYYADSVKGRFTISGDNAKNTVYLQMKSLKPEDTAVYDCAARFGGGAARHGYWGQGTQVTVSS”, “high polyreactivity”; for “QVQLVESGGGLLQAGGSLRLSCAASGSTLRRYAMGWDRQAPGKERELVAAISGSGDSTYYADSVKGRFTISRDNAKNTVYLQMNSLKPEDTAVYYCNAVYAFNGYDYWGQGTQVTVSS”, “low polyreactivity”.
Consider “QVQLVESGGGLLQAGGSLRLSCAASGYTSSRYAMGWYRQAPGKESELLAAISGTGGSTNYADSVKGRFTISRDNAKNTVYLQMNRLKPEDSAVYYCATRSFGAGYVGVRYYYWGQATQVTVSS”, for which the “polyreactivity (PSR sort gate)” value is given as “high polyreactivity”.
With “QVQLVESGGGLLQAGGSLRLSCAASVSIFSIYAMGWYRQAPGKERELVAAITLGGGSTYYADSVKGRFTISRDNAKNTVYLQMNCLTPEDTAVYYCAASSVYGYSYWGQGTQVTVSS” the entry was “high polyreactivity”; with “QVQLVESGGGLLQAGGSLRLSCAATGITYDYYDMGWYRQAPGKERELVAAIRWSGTSKYYADSVKGRFTISRDNANNTVYIQMNSLKTEDSAVYYCAALAVGNDYRRYGYWGQGTQVTVSS”, “high polyreactivity”; with “QVQLVESGGGLLQAGGSLRLSCADRRTLSFYAKGCSIQAPGKERELVAAISRSGGSTYYADSEKGRFTISRDNAKNTGKLQMNRLKPEDTAVYYFAARSSGGYDYWGQGTQVTVSS”, “high polyreactivity”.
With “QVQLVESGGGLLQAGGSLRLSCADSGSTFSRYSMGWYRQAPGKEREFVAAISRSGASTYYADSVKGRFTISRDNEMNTVNLQMNSLKPEDTAVYYCNTRRWRFVKYGYWGQGTQVTVSS” the entry was “high polyreactivity”; with “QVQLVESGGGLLQAGGSLRLSCASSGLIFLGYTMGRYIQAPGKERELVAAISRRGGRTYYADSVKGLFTISRDNAKNTVYLLMNSLKPEDTAVYYCNADITSSGPKSDYWGQGTQVTVSS”, “high polyreactivity”; with “QVQLVESGGGLLQAGGSLRLSCASSGRIFRWNAMGWYRQAPGKERELVAAISARGGSTYYADSVKGRFTISRDNAKNTVYLQMNSLKPEDTAVYYCAKVSSRGFDYWGQGTQVTVSS”, “high polyreactivity”.
Consider “QVQLVESGGGLLQAGGSLRLSSAASGLTFAAYAMGWYRQAPGKEREFVAAITSSGGSTYYADSVKGRFTISRDNAKNSVYLQMNSLKPEDTAVYYCAAYYYDHYYWGQGTQVTVSS”, for which the “polyreactivity (PSR sort gate)” value was “high polyreactivity”.
